One block for each binder: values may come before it. Numbered stars: 1 amine (or outer) side, 2 acyl side, 3 side chain; on linkers, the order of the positions; unused ones are H or OH. Bridge positions count the residues as written; N and C are the ends. Side chains are listed from the residue outwards. Ends that are not written are not given here. * marks the point of attachment. C20 diacid = O=C(O)CCCCCCCCCCCCCCCCCCC(=O)*; γGlu = O=C(O)[C@H](CCC(=O)[*:2])N[*:1]; AEEA = NCCOCCOCC(=O)O
Columns and labels:
[1] = target: T1, human calcitonin receptor (human, UniProt P30988 25-474); test: cell-based or functional assay
T1 sequence (looked up): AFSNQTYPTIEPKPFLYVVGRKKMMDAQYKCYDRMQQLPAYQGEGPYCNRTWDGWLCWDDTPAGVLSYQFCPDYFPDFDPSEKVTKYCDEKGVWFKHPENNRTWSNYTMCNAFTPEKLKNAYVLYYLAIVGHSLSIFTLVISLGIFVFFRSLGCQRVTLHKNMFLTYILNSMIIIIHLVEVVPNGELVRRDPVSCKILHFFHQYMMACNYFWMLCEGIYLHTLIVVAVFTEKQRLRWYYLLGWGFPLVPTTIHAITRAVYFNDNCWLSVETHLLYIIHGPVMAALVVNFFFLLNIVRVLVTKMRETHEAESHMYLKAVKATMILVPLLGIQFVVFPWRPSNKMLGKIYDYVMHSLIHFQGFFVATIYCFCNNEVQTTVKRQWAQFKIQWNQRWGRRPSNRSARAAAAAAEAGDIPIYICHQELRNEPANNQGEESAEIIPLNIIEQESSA

[2] = target: T2, human amylin receptor (amylin 3(a) receptor: human calcitonin receptor co-expressed with RAMP-3) (human, UniProt P30988 25-474; O60896 24-148, limits assumed); test: cell-based or functional assay
T2 sequence (looked up) 1: T1 sequence (looked up)
T2 sequence (looked up) 2: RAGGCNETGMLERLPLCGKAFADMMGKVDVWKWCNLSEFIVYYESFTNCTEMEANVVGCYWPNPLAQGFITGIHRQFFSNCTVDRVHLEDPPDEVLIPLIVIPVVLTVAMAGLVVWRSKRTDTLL

B1: N^ε1-[(4S)-4-carboxy-4-(19-carboxynonadecanoylamino)butanoyl]-[His14,Arg17,Pro21,Pro27]-h-amylin (peptide)
peptide: K([γGlu-C20 diacid])CNTATCATQRLAHFLRHSSPNFGAIPSSTNVGSNTY-NH2
modifications: disulfide 2-7; N-terminus assumed
SMILES: CC[C@H](C)[C@H](NC(=O)[C@H](C)NC(=O)CNC(=O)[C@H](Cc1ccccc1)NC(=O)[C@H](CC(N)=O)NC(=O)[C@@H]1CCCN1C(=O)[C@H](CO)NC(=O)[C@H](CO)NC(=O)[C@H](Cc1c[nH]cn1)NC(=O)[C@H](CCCNC(=N)N)NC(=O)[C@H](CC(C)C)NC(=O)[C@H](Cc1ccccc1)NC(=O)[C@H](Cc1c[nH]cn1)NC(=O)[C@H](C)NC(=O)[C@H](CC(C)C)NC(=O)[C@H](CCCNC(=N)N)NC(=O)[C@H](CCC(N)=O)NC(=O)[C@@H](NC(=O)[C@H](C)NC(=O)[C@@H]1CSSC[C@H](NC(=O)[C@@H](N)CCCCNC(=O)CC[C@H](NC(=O)CCCCCCCCCCCCCCCCCCC(=O)O)C(=O)O)C(=O)N[C@@H](CC(N)=O)C(=O)N[C@@H]([C@@H](C)O)C(=O)N[C@@H](C)C(=O)N[C@@H]([C@@H](C)O)C(=O)N1)[C@@H](C)O)C(=O)N1CCC[C@H]1C(=O)N[C@@H](CO)C(=O)N[C@@H](CO)C(=O)N[C@H](C(=O)N[C@@H](CC(N)=O)C(=O)N[C@H](C(=O)NCC(=O)N[C@@H](CO)C(=O)N[C@@H](CC(N)=O)C(=O)N[C@H](C(=O)N[C@@H](Cc1ccc(O)cc1)C(N)=O)[C@@H](C)O)C(C)C)[C@@H](C)O
notes: also called compound 70
- hCTR funct. EC50 [1]: 0.715 nM
- hAmylin-R funct. EC50 [2]: 0.04 nM

B4: N^ε21-[(4S)-4-carboxy-4-[[(4S)-4-carboxy-4-(19-carboxynonadecanoylamino)butanoyl]amino]butanoyl]-[Asp14,Arg17,Lys21,Pro27,Asp35]-h-amylin (peptide)
peptide: KCNTATCATQRLADFLRHSSK([γGlu-γGlu-C20 diacid])NFGAIPSSTNVGSDTY-NH2
modifications: disulfide 2-7; N-terminus assumed
SMILES: CC[C@H](C)[C@H](NC(=O)[C@H](C)NC(=O)CNC(=O)[C@H](Cc1ccccc1)NC(=O)[C@H](CC(N)=O)NC(=O)[C@H](CCCCNC(=O)CC[C@H](NC(=O)CC[C@H](NC(=O)CCCCCCCCCCCCCCCCCCC(=O)O)C(=O)O)C(=O)O)NC(=O)[C@H](CO)NC(=O)[C@H](CO)NC(=O)[C@H](Cc1c[nH]cn1)NC(=O)[C@H](CCCNC(=N)N)NC(=O)[C@H](CC(C)C)NC(=O)[C@H](Cc1ccccc1)NC(=O)[C@H](CC(=O)O)NC(=O)[C@H](C)NC(=O)[C@H](CC(C)C)NC(=O)[C@H](CCCNC(=N)N)NC(=O)[C@H](CCC(N)=O)NC(=O)[C@@H](NC(=O)[C@H](C)NC(=O)[C@@H]1CSSC[C@H](NC(=O)[C@@H](N)CCCCN)C(=O)N[C@@H](CC(N)=O)C(=O)N[C@@H]([C@@H](C)O)C(=O)N[C@@H](C)C(=O)N[C@@H]([C@@H](C)O)C(=O)N1)[C@@H](C)O)C(=O)N1CCC[C@H]1C(=O)N[C@@H](CO)C(=O)N[C@@H](CO)C(=O)N[C@H](C(=O)N[C@@H](CC(N)=O)C(=O)N[C@H](C(=O)NCC(=O)N[C@@H](CO)C(=O)N[C@@H](CC(=O)O)C(=O)N[C@H](C(=O)N[C@@H](Cc1ccc(O)cc1)C(N)=O)[C@@H](C)O)C(C)C)[C@@H](C)O
notes: also called compound 59
- hCTR funct. EC50 [1]: 1.95 nM
- hAmylin-R funct. EC50 [2]: 0.389 nM

B6: N^ε1-[2-[2-[2-(19-carboxynonadecanoylamino)ethoxy]ethoxy]acetyl]-[His14,Arg17,Pro21,Pro27]-h-amylin (peptide)
peptide: K([AEEA-C20 diacid])CNTATCATQRLAHFLRHSSPNFGAIPSSTNVGSNTY-NH2
modifications: disulfide 2-7; N-terminus assumed
SMILES: CC[C@H](C)[C@H](NC(=O)[C@H](C)NC(=O)CNC(=O)[C@H](Cc1ccccc1)NC(=O)[C@H](CC(N)=O)NC(=O)[C@@H]1CCCN1C(=O)[C@H](CO)NC(=O)[C@H](CO)NC(=O)[C@H](Cc1c[nH]cn1)NC(=O)[C@H](CCCNC(=N)N)NC(=O)[C@H](CC(C)C)NC(=O)[C@H](Cc1ccccc1)NC(=O)[C@H](Cc1c[nH]cn1)NC(=O)[C@H](C)NC(=O)[C@H](CC(C)C)NC(=O)[C@H](CCCNC(=N)N)NC(=O)[C@H](CCC(N)=O)NC(=O)[C@@H](NC(=O)[C@H](C)NC(=O)[C@@H]1CSSC[C@H](NC(=O)[C@@H](N)CCCCNC(=O)COCCOCCNC(=O)CCCCCCCCCCCCCCCCCCC(=O)O)C(=O)N[C@@H](CC(N)=O)C(=O)N[C@@H]([C@@H](C)O)C(=O)N[C@@H](C)C(=O)N[C@@H]([C@@H](C)O)C(=O)N1)[C@@H](C)O)C(=O)N1CCC[C@H]1C(=O)N[C@@H](CO)C(=O)N[C@@H](CO)C(=O)N[C@H](C(=O)N[C@@H](CC(N)=O)C(=O)N[C@H](C(=O)NCC(=O)N[C@@H](CO)C(=O)N[C@@H](CC(N)=O)C(=O)N[C@H](C(=O)N[C@@H](Cc1ccc(O)cc1)C(N)=O)[C@@H](C)O)C(C)C)[C@@H](C)O
notes: also called compound 90
- hCTR funct. EC50 [1]: 0.236 nM
- Ratio hCT/hAmylin funct. [2]: 7.2
- hAmylin-R funct. EC50 [2]: 0.033 nM

Results, then the binder that gave them:

- hCTR funct. EC50 [1]: 6.55 nM
- Ratio hCT/hAmylin funct. [2]: 8.5
- hAmylin-R funct. EC50 [2]: 0.773 nM
B2: N^ε1-[(4S)-4-carboxy-4-[[(4S)-4-carboxy-4-(19-carboxynonadecanoylamino)butanoyl]amino]butanoyl]-[Glu14,Arg17,Pro21,Pro27,Arg34]-h-amylin (peptide)
peptide: K([γGlu-γGlu-C20 diacid])CNTATCATQRLAEFLRHSSPNFGAIPSSTNVGRNTY-NH2
modifications: disulfide 2-7; N-terminus assumed
SMILES: CC[C@H](C)[C@H](NC(=O)[C@H](C)NC(=O)CNC(=O)[C@H](Cc1ccccc1)NC(=O)[C@H](CC(N)=O)NC(=O)[C@@H]1CCCN1C(=O)[C@H](CO)NC(=O)[C@H](CO)NC(=O)[C@H](Cc1c[nH]cn1)NC(=O)[C@H](CCCNC(=N)N)NC(=O)[C@H](CC(C)C)NC(=O)[C@H](Cc1ccccc1)NC(=O)[C@H](CCC(=O)O)NC(=O)[C@H](C)NC(=O)[C@H](CC(C)C)NC(=O)[C@H](CCCNC(=N)N)NC(=O)[C@H](CCC(N)=O)NC(=O)[C@@H](NC(=O)[C@H](C)NC(=O)[C@@H]1CSSC[C@H](NC(=O)[C@@H](N)CCCCNC(=O)CC[C@H](NC(=O)CC[C@H](NC(=O)CCCCCCCCCCCCCCCCCCC(=O)O)C(=O)O)C(=O)O)C(=O)N[C@@H](CC(N)=O)C(=O)N[C@@H]([C@@H](C)O)C(=O)N[C@@H](C)C(=O)N[C@@H]([C@@H](C)O)C(=O)N1)[C@@H](C)O)C(=O)N1CCC[C@H]1C(=O)N[C@@H](CO)C(=O)N[C@@H](CO)C(=O)N[C@H](C(=O)N[C@@H](CC(N)=O)C(=O)N[C@H](C(=O)NCC(=O)N[C@@H](CCCNC(=N)N)C(=O)N[C@@H](CC(N)=O)C(=O)N[C@H](C(=O)N[C@@H](Cc1ccc(O)cc1)C(N)=O)[C@@H](C)O)C(C)C)[C@@H](C)O
notes: also called compound 88

- hCTR funct. EC50 [1]: 11.2 nM
- Ratio hCT/hAmylin funct. [2]: 27.8
- hAmylin-R funct. EC50 [2]: 0.404 nM
B3: N^ε1-[(4S)-4-carboxy-4-[[(4S)-4-carboxy-4-(19-carboxynonadecanoylamino)butanoyl]amino]butanoyl]-[Glu14,Arg17,Pro21,Pro27,Arg35]-h-amylin (peptide)
peptide: K([γGlu-γGlu-C20 diacid])CNTATCATQRLAEFLRHSSPNFGAIPSSTNVGSRTY-NH2
modifications: disulfide 2-7; N-terminus assumed
SMILES: CC[C@H](C)[C@H](NC(=O)[C@H](C)NC(=O)CNC(=O)[C@H](Cc1ccccc1)NC(=O)[C@H](CC(N)=O)NC(=O)[C@@H]1CCCN1C(=O)[C@H](CO)NC(=O)[C@H](CO)NC(=O)[C@H](Cc1c[nH]cn1)NC(=O)[C@H](CCCNC(=N)N)NC(=O)[C@H](CC(C)C)NC(=O)[C@H](Cc1ccccc1)NC(=O)[C@H](CCC(=O)O)NC(=O)[C@H](C)NC(=O)[C@H](CC(C)C)NC(=O)[C@H](CCCNC(=N)N)NC(=O)[C@H](CCC(N)=O)NC(=O)[C@@H](NC(=O)[C@H](C)NC(=O)[C@@H]1CSSC[C@H](NC(=O)[C@@H](N)CCCCNC(=O)CC[C@H](NC(=O)CC[C@H](NC(=O)CCCCCCCCCCCCCCCCCCC(=O)O)C(=O)O)C(=O)O)C(=O)N[C@@H](CC(N)=O)C(=O)N[C@@H]([C@@H](C)O)C(=O)N[C@@H](C)C(=O)N[C@@H]([C@@H](C)O)C(=O)N1)[C@@H](C)O)C(=O)N1CCC[C@H]1C(=O)N[C@@H](CO)C(=O)N[C@@H](CO)C(=O)N[C@H](C(=O)N[C@@H](CC(N)=O)C(=O)N[C@H](C(=O)NCC(=O)N[C@@H](CO)C(=O)N[C@@H](CCCNC(=N)N)C(=O)N[C@H](C(=O)N[C@@H](Cc1ccc(O)cc1)C(N)=O)[C@@H](C)O)C(C)C)[C@@H](C)O
notes: also called compound 89

- hCTR funct. EC50 [1]: 2.38 nM
- Ratio hCT/hAmylin funct. [2]: 28
- hAmylin-R funct. EC50 [2]: 0.085 nM
B5: N^ε1-[(4S)-4-carboxy-4-[[(4S)-4-carboxy-4-(19-carboxynonadecanoylamino)butanoyl]amino]butanoyl]-[His14,Arg17,Pro21,Pro27]-h-amylin (peptide)
peptide: K([γGlu-γGlu-C20 diacid])CNTATCATQRLAHFLRHSSPNFGAIPSSTNVGSNTY-NH2
modifications: disulfide 2-7; N-terminus assumed
SMILES: CC[C@H](C)[C@H](NC(=O)[C@H](C)NC(=O)CNC(=O)[C@H](Cc1ccccc1)NC(=O)[C@H](CC(N)=O)NC(=O)[C@@H]1CCCN1C(=O)[C@H](CO)NC(=O)[C@H](CO)NC(=O)[C@H](Cc1c[nH]cn1)NC(=O)[C@H](CCCNC(=N)N)NC(=O)[C@H](CC(C)C)NC(=O)[C@H](Cc1ccccc1)NC(=O)[C@H](Cc1c[nH]cn1)NC(=O)[C@H](C)NC(=O)[C@H](CC(C)C)NC(=O)[C@H](CCCNC(=N)N)NC(=O)[C@H](CCC(N)=O)NC(=O)[C@@H](NC(=O)[C@H](C)NC(=O)[C@@H]1CSSC[C@H](NC(=O)[C@@H](N)CCCCNC(=O)CC[C@H](NC(=O)CC[C@H](NC(=O)CCCCCCCCCCCCCCCCCCC(=O)O)C(=O)O)C(=O)O)C(=O)N[C@@H](CC(N)=O)C(=O)N[C@@H]([C@@H](C)O)C(=O)N[C@@H](C)C(=O)N[C@@H]([C@@H](C)O)C(=O)N1)[C@@H](C)O)C(=O)N1CCC[C@H]1C(=O)N[C@@H](CO)C(=O)N[C@@H](CO)C(=O)N[C@H](C(=O)N[C@@H](CC(N)=O)C(=O)N[C@H](C(=O)NCC(=O)N[C@@H](CO)C(=O)N[C@@H](CC(N)=O)C(=O)N[C@H](C(=O)N[C@@H](Cc1ccc(O)cc1)C(N)=O)[C@@H](C)O)C(C)C)[C@@H](C)O
notes: also called compound 92

Reference: patent publication US20140087995A1 (published 2014)
